This is an account of results in publication PMC3683045, “Induced tRNA Import into Human Mitochondria: Implication of a Host Aminoacyl-tRNA-Synthetase”.

The data set addresses preKARS2 (cytosolic precursor of human mitochondrial lysyl-tRNA synthetase) (human, UniProt Q15046-2 1-625). The data set is described as follows: EMSA; 10 mM Mg2+; EMSA: 20 mM Tris-HCl pH 7.5, 150 mM NaCl, 10 mM MgCl2, 5 mM DTT, 10% glycerol, 0.1 mg/ml BSA, 30 C, 15 min; native 8% PAGE in 0.5x Tris-borate pH 8.3, 5% glycerol. Conditions: protein: recombinant; tags: C-terminal 6xHis; chain copies: 2; label: 5'-32P; D-arm and F-hairpin with linker. A general note: In EMSA bound probe runs differently from free probe, usually more slowly.

Chain of preKARS2 (cytosolic precursor of human mitochondrial lysyl-tRNA synthetase) (Q15046 other isoform, or with tags, fused parts or gaps): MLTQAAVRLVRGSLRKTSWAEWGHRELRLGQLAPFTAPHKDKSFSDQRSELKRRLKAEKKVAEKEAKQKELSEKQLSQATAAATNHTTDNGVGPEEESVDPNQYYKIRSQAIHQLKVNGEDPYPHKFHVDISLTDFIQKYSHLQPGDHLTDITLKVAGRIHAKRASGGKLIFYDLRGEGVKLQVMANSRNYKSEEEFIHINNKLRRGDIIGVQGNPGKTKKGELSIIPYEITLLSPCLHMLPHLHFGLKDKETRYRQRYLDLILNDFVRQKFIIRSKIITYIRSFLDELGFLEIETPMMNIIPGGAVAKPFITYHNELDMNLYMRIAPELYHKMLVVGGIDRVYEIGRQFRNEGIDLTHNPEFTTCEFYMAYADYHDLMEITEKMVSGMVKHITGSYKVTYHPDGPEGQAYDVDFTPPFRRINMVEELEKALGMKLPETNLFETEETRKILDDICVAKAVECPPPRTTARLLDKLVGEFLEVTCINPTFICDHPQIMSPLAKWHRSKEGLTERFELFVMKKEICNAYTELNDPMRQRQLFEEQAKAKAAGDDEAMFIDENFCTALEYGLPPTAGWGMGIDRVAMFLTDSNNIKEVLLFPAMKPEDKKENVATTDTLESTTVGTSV

B1: FD-L (structured_RNA)
RNA: GCGCAAUCGGUAGCGCCUCUUUACAGUGCUUAGUUCUCGAGCCCCCUACAGGGCUCUU
By Kd is commonly meant the equilibrium constant for the complex coming apart. Consider B1, for which the Kd was determined as 400 ± 50 nM.

B2: FD-H (structured_RNA)
RNA: GCGCAAUCGGUAGCGCAGUAAGCACUGUAAAUGAGCCCCCUACAGGGCUCUU
Regarding B2, the Kd was 400 ± 50 nM.
